In US20050042631A1 (US Dept. of Health and Human Services, published 2005):

Target: T1, GST-K-p52 (human, UniProt O75475 1-325, 32P-labeled by HMK where used as Farwestern probe)
T1 construct: The Nru I-EcoR V fragment of p52 cDNA was put in pGEX-2T(K); also called GST-p52; p52 probe; not shown: glutathione-S-transferase from the pGEX-2T(K) vector; heart muscle kinase (K) site and vector linker
Experiment: Farwestern blot with 32P-labeled GST-K-p52

T1 sequence (O75475 other isoform, or with tags, fused parts or gaps): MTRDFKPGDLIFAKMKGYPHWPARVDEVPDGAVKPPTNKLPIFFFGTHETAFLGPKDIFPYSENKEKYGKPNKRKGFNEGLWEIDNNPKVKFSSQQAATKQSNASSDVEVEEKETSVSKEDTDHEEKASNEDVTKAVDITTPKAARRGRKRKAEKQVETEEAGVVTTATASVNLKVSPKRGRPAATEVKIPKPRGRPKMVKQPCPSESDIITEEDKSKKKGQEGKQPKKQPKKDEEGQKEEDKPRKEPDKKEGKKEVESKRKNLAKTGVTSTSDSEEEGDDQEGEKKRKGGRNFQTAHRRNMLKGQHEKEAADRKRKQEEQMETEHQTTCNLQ

B1: GST-RS (GST-fused RS domain of ASF/SF2) (other, UniProt Q07955 198-248, looked up)
chain: RSPSYGRSRSRSRSRSRSRSRSNSRSRSYSPRRSRGSPRYSPRHSRSRSRT
notes: domain: RS domain; not shown: glutathione-S-transferase
binding result: no binding
